Measurements taken from the RNAGym collection of RNA variant scans (doi:10.1021/acssynbio.7b00057).

B1: Pistol ribozyme (parent)
chain: GGGUCGUUGUUCCAUAAUCGCGUGGAUAUGGCACGCAAGUUUCUACCGGGCACCGUAAAUGUCCGACUGGAGCCGUUCGGGCGGCUAUAAACAGACCUCAGGCCCGAAGCGUGGCGGCACCUGCCGCCGGUGGUAAAAAAGAUCGGAAGAGCACACGUCU

Variants of: B1
Assay: aptazyme ON/OFF ratio, guanine; higher = stronger switching; co-transcriptional cleavage with and without guanine

Variant | aptazyme ON/OFF ratio
GGGUCGCCCGAGGAUAAUCGCGUGGAUAUGGCACGCAAGUUUCUACCGGGCACCGUAAAUGUCCGACUGGAGCCGUUCGGGCGGCUAUAAACAGACCUCAGGCCCGAAGCGUGGCGGCACCUGCCGCCGGUGGUAAAAAAGAUCGGAAGAGCACACGUCU [U7C U8C G9C U10G U11A C12G C13G] | 1.11
GGGUCGCCCGAGAAUAAUCGCGUGGAUAUGGCACGCAAGUUUCUACCGGGCACCGUAAAUGUCCGACUGGAGCCGUUCGGGCGGCUAUAAACAGACCUCAGGCCCGAAGCGUGGCGGCACCUGCCGCCGGUGGUAAAAAAGAUCGGAAGAGCACACGUCU [U7C U8C G9C U10G U11A C12G C13A] | 1.05
GGGUCGCCCGAGUAUAAUCGCGUGGAUAUGGCACGCAAGUUUCUACCGGGCACCGUAAAUGUCCGACUGGAGCCGUUCGGGCGGCUAUAAACAGACCUCAGGCCCGAAGCGUGGCGGCACCUGCCGCCGGUGGUAAAAAAGAUCGGAAGAGCACACGUCU [U7C U8C G9C U10G U11A C12G C13U] | 1.08
GGGUCGCCCGGGAAUAAUCGCGUGGAUAUGGCACGCAAGUUUCUACCGGGCACCGUAAAUGUCCGACUGGAGCCGUUCGGGCGGCUAUAAACAGACCUCAGGCCCGAAGCGUGGCGGCACCUGCCGCCGGUGGUAAAAAAGAUCGGAAGAGCACACGUCU [U7C U8C G9C U10G U11G C12G C13A] | 1.11
GGGUCGCCCGCACAUAAUCGCGUGGAUAUGGCACGCAAGUUUCUACCGGGCACCGUAAAUGUCCGACUGGAGCCGUUCGGGCGGCUAUAAACAGACCUCAGGCCCGAAGCGUGGCGGCACCUGCCGCCGGUGGUAAAAAAGAUCGGAAGAGCACACGUCU [U7C U8C G9C U10G U11C C12A] | 1.09
GGGUCGCCCGCUCAUAAUCGCGUGGAUAUGGCACGCAAGUUUCUACCGGGCACCGUAAAUGUCCGACUGGAGCCGUUCGGGCGGCUAUAAACAGACCUCAGGCCCGAAGCGUGGCGGCACCUGCCGCCGGUGGUAAAAAAGAUCGGAAGAGCACACGUCU [U7C U8C G9C U10G U11C C12U] | 1.19
GGGUCGCCCGCGCAUAAUCGCGUGGAUAUGGCACGCAAGUUUCUACCGGGCACCGUAAAUGUCCGACUGGAGCCGUUCGGGCGGCUAUAAACAGACCUCAGGCCCGAAGCGUGGCGGCACCUGCCGCCGGUGGUAAAAAAGAUCGGAAGAGCACACGUCU [U7C U8C G9C U10G U11C C12G] | 1.14
GGGUCGCCCGAUGAUAAUCGCGUGGAUAUGGCACGCAAGUUUCUACCGGGCACCGUAAAUGUCCGACUGGAGCCGUUCGGGCGGCUAUAAACAGACCUCAGGCCCGAAGCGUGGCGGCACCUGCCGCCGGUGGUAAAAAAGAUCGGAAGAGCACACGUCU [U7C U8C G9C U10G U11A C12U C13G] | 1.07
GGGUCGCCCGAUUAUAAUCGCGUGGAUAUGGCACGCAAGUUUCUACCGGGCACCGUAAAUGUCCGACUGGAGCCGUUCGGGCGGCUAUAAACAGACCUCAGGCCCGAAGCGUGGCGGCACCUGCCGCCGGUGGUAAAAAAGAUCGGAAGAGCACACGUCU [U7C U8C G9C U10G U11A C12U C13U] | 1.09
GGGUCGCCCGAUAAUAAUCGCGUGGAUAUGGCACGCAAGUUUCUACCGGGCACCGUAAAUGUCCGACUGGAGCCGUUCGGGCGGCUAUAAACAGACCUCAGGCCCGAAGCGUGGCGGCACCUGCCGCCGGUGGUAAAAAAGAUCGGAAGAGCACACGUCU [U7C U8C G9C U10G U11A C12U C13A] | 1.07
GGGUCGCCCGGAUAUAAUCGCGUGGAUAUGGCACGCAAGUUUCUACCGGGCACCGUAAAUGUCCGACUGGAGCCGUUCGGGCGGCUAUAAACAGACCUCAGGCCCGAAGCGUGGCGGCACCUGCCGCCGGUGGUAAAAAAGAUCGGAAGAGCACACGUCU [U7C U8C G9C U10G U11G C12A C13U] | 1.09
GGGUCGCCCGGAAAUAAUCGCGUGGAUAUGGCACGCAAGUUUCUACCGGGCACCGUAAAUGUCCGACUGGAGCCGUUCGGGCGGCUAUAAACAGACCUCAGGCCCGAAGCGUGGCGGCACCUGCCGCCGGUGGUAAAAAAGAUCGGAAGAGCACACGUCU [U7C U8C G9C U10G U11G C12A C13A] | 1.08
GGGUCGCCCGGAGAUAAUCGCGUGGAUAUGGCACGCAAGUUUCUACCGGGCACCGUAAAUGUCCGACUGGAGCCGUUCGGGCGGCUAUAAACAGACCUCAGGCCCGAAGCGUGGCGGCACCUGCCGCCGGUGGUAAAAAAGAUCGGAAGAGCACACGUCU [U7C U8C G9C U10G U11G C12A C13G] | 1.07
GGGUCGCCCGCGAAUAAUCGCGUGGAUAUGGCACGCAAGUUUCUACCGGGCACCGUAAAUGUCCGACUGGAGCCGUUCGGGCGGCUAUAAACAGACCUCAGGCCCGAAGCGUGGCGGCACCUGCCGCCGGUGGUAAAAAAGAUCGGAAGAGCACACGUCU [U7C U8C G9C U10G U11C C12G C13A] | 1.14
GGGUCGCCCGCGUAUAAUCGCGUGGAUAUGGCACGCAAGUUUCUACCGGGCACCGUAAAUGUCCGACUGGAGCCGUUCGGGCGGCUAUAAACAGACCUCAGGCCCGAAGCGUGGCGGCACCUGCCGCCGGUGGUAAAAAAGAUCGGAAGAGCACACGUCU [U7C U8C G9C U10G U11C C12G C13U] | 1.11
GGGUCGCCCGCGGAUAAUCGCGUGGAUAUGGCACGCAAGUUUCUACCGGGCACCGUAAAUGUCCGACUGGAGCCGUUCGGGCGGCUAUAAACAGACCUCAGGCCCGAAGCGUGGCGGCACCUGCCGCCGGUGGUAAAAAAGAUCGGAAGAGCACACGUCU [U7C U8C G9C U10G U11C C12G C13G] | 1.1
GGGUCGCCCGCCCAUAAUCGCGUGGAUAUGGCACGCAAGUUUCUACCGGGCACCGUAAAUGUCCGACUGGAGCCGUUCGGGCGGCUAUAAACAGACCUCAGGCCCGAAGCGUGGCGGCACCUGCCGCCGGUGGUAAAAAAGAUCGGAAGAGCACACGUCU [U7C U8C G9C U10G U11C] | 1.5
GGGUCGCCCGGCCAUAAUCGCGUGGAUAUGGCACGCAAGUUUCUACCGGGCACCGUAAAUGUCCGACUGGAGCCGUUCGGGCGGCUAUAAACAGACCUCAGGCCCGAAGCGUGGCGGCACCUGCCGCCGGUGGUAAAAAAGAUCGGAAGAGCACACGUCU [U7C U8C G9C U10G U11G] | 1.09

Variant | aptazyme ON/OFF ratio
GGGUCGCCCGACAAUAAUCGCGUGGAUAUGGCACGCAAGUUUCUACCGGGCACCGUAAAUGUCCGACUGGAGCCGUUCGGGCGGCUAUAAACAGACCUCAGGCCCGAAGCGUGGCGGCACCUGCCGCCGGUGGUAAAAAAGAUCGGAAGAGCACACGUCU [U7C U8C G9C U10G U11A C13A] | 1.14
GGGUCGCCCGACUAUAAUCGCGUGGAUAUGGCACGCAAGUUUCUACCGGGCACCGUAAAUGUCCGACUGGAGCCGUUCGGGCGGCUAUAAACAGACCUCAGGCCCGAAGCGUGGCGGCACCUGCCGCCGGUGGUAAAAAAGAUCGGAAGAGCACACGUCU [U7C U8C G9C U10G U11A C13U] | 1.09
GGGUCGCCCGACGAUAAUCGCGUGGAUAUGGCACGCAAGUUUCUACCGGGCACCGUAAAUGUCCGACUGGAGCCGUUCGGGCGGCUAUAAACAGACCUCAGGCCCGAAGCGUGGCGGCACCUGCCGCCGGUGGUAAAAAAGAUCGGAAGAGCACACGUCU [U7C U8C G9C U10G U11A C13G] | 1.08
GGGUCGCCCGAUCAUAAUCGCGUGGAUAUGGCACGCAAGUUUCUACCGGGCACCGUAAAUGUCCGACUGGAGCCGUUCGGGCGGCUAUAAACAGACCUCAGGCCCGAAGCGUGGCGGCACCUGCCGCCGGUGGUAAAAAAGAUCGGAAGAGCACACGUCU [U7C U8C G9C U10G U11A C12U] | 1.15
GGGUCGCCCGAGCAUAAUCGCGUGGAUAUGGCACGCAAGUUUCUACCGGGCACCGUAAAUGUCCGACUGGAGCCGUUCGGGCGGCUAUAAACAGACCUCAGGCCCGAAGCGUGGCGGCACCUGCCGCCGGUGGUAAAAAAGAUCGGAAGAGCACACGUCU [U7C U8C G9C U10G U11A C12G] | 1.11
GGGUCGCCCGAAGAUAAUCGCGUGGAUAUGGCACGCAAGUUUCUACCGGGCACCGUAAAUGUCCGACUGGAGCCGUUCGGGCGGCUAUAAACAGACCUCAGGCCCGAAGCGUGGCGGCACCUGCCGCCGGUGGUAAAAAAGAUCGGAAGAGCACACGUCU [U7C U8C G9C U10G U11A C12A C13G] | 1.11
GGGUCGCCCGAAUAUAAUCGCGUGGAUAUGGCACGCAAGUUUCUACCGGGCACCGUAAAUGUCCGACUGGAGCCGUUCGGGCGGCUAUAAACAGACCUCAGGCCCGAAGCGUGGCGGCACCUGCCGCCGGUGGUAAAAAAGAUCGGAAGAGCACACGUCU [U7C U8C G9C U10G U11A C12A C13U] | 1.11
GGGUCGCCCGCAGAUAAUCGCGUGGAUAUGGCACGCAAGUUUCUACCGGGCACCGUAAAUGUCCGACUGGAGCCGUUCGGGCGGCUAUAAACAGACCUCAGGCCCGAAGCGUGGCGGCACCUGCCGCCGGUGGUAAAAAAGAUCGGAAGAGCACACGUCU [U7C U8C G9C U10G U11C C12A C13G] | 1.17
GGGUCGCCCGCAAAUAAUCGCGUGGAUAUGGCACGCAAGUUUCUACCGGGCACCGUAAAUGUCCGACUGGAGCCGUUCGGGCGGCUAUAAACAGACCUCAGGCCCGAAGCGUGGCGGCACCUGCCGCCGGUGGUAAAAAAGAUCGGAAGAGCACACGUCU [U7C U8C G9C U10G U11C C12A C13A] | 1.13
GGGUCGCCCGCAUAUAAUCGCGUGGAUAUGGCACGCAAGUUUCUACCGGGCACCGUAAAUGUCCGACUGGAGCCGUUCGGGCGGCUAUAAACAGACCUCAGGCCCGAAGCGUGGCGGCACCUGCCGCCGGUGGUAAAAAAGAUCGGAAGAGCACACGUCU [U7C U8C G9C U10G U11C C12A C13U] | 1.09
GGGUCGCCCGCCUAUAAUCGCGUGGAUAUGGCACGCAAGUUUCUACCGGGCACCGUAAAUGUCCGACUGGAGCCGUUCGGGCGGCUAUAAACAGACCUCAGGCCCGAAGCGUGGCGGCACCUGCCGCCGGUGGUAAAAAAGAUCGGAAGAGCACACGUCU [U7C U8C G9C U10G U11C C13U] | 1.08
GGGUCGCCCGCCAAUAAUCGCGUGGAUAUGGCACGCAAGUUUCUACCGGGCACCGUAAAUGUCCGACUGGAGCCGUUCGGGCGGCUAUAAACAGACCUCAGGCCCGAAGCGUGGCGGCACCUGCCGCCGGUGGUAAAAAAGAUCGGAAGAGCACACGUCU [U7C U8C G9C U10G U11C C13A] | 1.22
GGGUCGCCCGCCGAUAAUCGCGUGGAUAUGGCACGCAAGUUUCUACCGGGCACCGUAAAUGUCCGACUGGAGCCGUUCGGGCGGCUAUAAACAGACCUCAGGCCCGAAGCGUGGCGGCACCUGCCGCCGGUGGUAAAAAAGAUCGGAAGAGCACACGUCU [U7C U8C G9C U10G U11C C13G] | 1.08
GGGUCGCCCGCUUAUAAUCGCGUGGAUAUGGCACGCAAGUUUCUACCGGGCACCGUAAAUGUCCGACUGGAGCCGUUCGGGCGGCUAUAAACAGACCUCAGGCCCGAAGCGUGGCGGCACCUGCCGCCGGUGGUAAAAAAGAUCGGAAGAGCACACGUCU [U7C U8C G9C U10G U11C C12U C13U] | 1.17
GGGUCGCCCGCUAAUAAUCGCGUGGAUAUGGCACGCAAGUUUCUACCGGGCACCGUAAAUGUCCGACUGGAGCCGUUCGGGCGGCUAUAAACAGACCUCAGGCCCGAAGCGUGGCGGCACCUGCCGCCGGUGGUAAAAAAGAUCGGAAGAGCACACGUCU [U7C U8C G9C U10G U11C C12U C13A] | 1.07
GGGUCGCCCGCUGAUAAUCGCGUGGAUAUGGCACGCAAGUUUCUACCGGGCACCGUAAAUGUCCGACUGGAGCCGUUCGGGCGGCUAUAAACAGACCUCAGGCCCGAAGCGUGGCGGCACCUGCCGCCGGUGGUAAAAAAGAUCGGAAGAGCACACGUCU [U7C U8C G9C U10G U11C C12U C13G] | 1.14
GGGUCGCCCGGGCAUAAUCGCGUGGAUAUGGCACGCAAGUUUCUACCGGGCACCGUAAAUGUCCGACUGGAGCCGUUCGGGCGGCUAUAAACAGACCUCAGGCCCGAAGCGUGGCGGCACCUGCCGCCGGUGGUAAAAAAGAUCGGAAGAGCACACGUCU [U7C U8C G9C U10G U11G C12G] | 1.14
GGGUCGCCCGGACAUAAUCGCGUGGAUAUGGCACGCAAGUUUCUACCGGGCACCGUAAAUGUCCGACUGGAGCCGUUCGGGCGGCUAUAAACAGACCUCAGGCCCGAAGCGUGGCGGCACCUGCCGCCGGUGGUAAAAAAGAUCGGAAGAGCACACGUCU [U7C U8C G9C U10G U11G C12A] | 1.11
